Biological target: ACP-HA labeled via ACP with Cy3
Assay: mock pull-down on magnetic beads from an equimolar mixture of Cy3-ACP-HA and Cy3-ACP-CaM-PCP; SDS-PAGE and in-gel fluorescence scanning; reference is ACP-CaM-PCP

enrichment of ACP-HA over ACP-CaM-PCP: 80 fold
Substance: primary-chloride-derivatized 12CA5 antibody immobilized via covalin on magnetic beads displaying BG

Source: patent publication US20100075394A1
